Patent publication US20220401557A1 (Chugai, published 2022)
Where a chain is given by its changes, count along the chain named. Values belong to the binder of their own block, whether it stands above or below them.

Target: CD3 on NFAT-RE-luc2-Jurkat cells (human, UniProt P07766 23-207)
Experiment: cell-based or functional assay

Chain of CD3 on NFAT-RE-luc2-Jurkat cells (P07766 23-207): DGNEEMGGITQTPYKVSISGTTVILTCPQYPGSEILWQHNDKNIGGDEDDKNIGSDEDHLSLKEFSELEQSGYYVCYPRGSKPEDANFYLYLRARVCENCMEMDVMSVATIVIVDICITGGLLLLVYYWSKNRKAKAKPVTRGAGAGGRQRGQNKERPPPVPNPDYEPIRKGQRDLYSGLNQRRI

increase rate due to the protease treatment (luciferase, uPA-treated / untreated), antibody 0.1 nM: 0.7 ratio
increase rate due to the protease treatment (luciferase, uPA-treated / untreated), antibody 1 nM: 0.9 ratio
B1: rCE115/GLS//GCH065 (bispecific antibody, human IgG1, kappa, N297A)
heavy 1: EVQLVETGGSLVQPGKSLKLTCATSGFTFSNAWMHWVRQSPEKQLEWVAQIKAKSNNYATYYAESVKGRFTISRDDSKSNIYLQMNSLKEEDTAVYYCRYVHYGAYYGVDAWGQGTSVTVSSASTKGPSVFPLAPSSKSTSGGTAALGCLVKDYFPEPVTVSWNSGALTSGVHTFPAVLQSSGLYSLSSVVTVPSSSLGTQTYICNVNHKPSNTKVDKKVEPKSCDKTHTCPPCPAPELRGGPKVFLFPPKPKDTLMISRTPEVTCVVVDVSHEDPEVKFNWYVDGVEVHNAKTKPREEQYASTYRVVSVLTVLHQDWLNGKEYKCKVSNKALPAPIEKTISKAKGQPREPQVYTLPPSRKEMTKNQVSLTCLVKGFYPSDIAVEWESNGQPENNYKTTPPYLDSDGSFFLYSKLTVDKSRWQQGNVFSCSVMHEALHNHYTQKSLSLSP
light 1: DIVMTQSPLSLPVTPGEPASISCRSSQSLVHSNRNTYLHWYQQKPGQAPRLLIYKVSNRFSGVPDRFSGSGSGTDFTLKISRVEAEDVGVYYCGQGTQVPYTFGQGTKLEIKRTVAAPSVFIFPPSDEQLKSGTASVVCLLNNFYPREAKVQWKVDNALQSGNSQESVTEQDSKDSTYSLSSTLTLSKADYEKHKVYACEVTHQGLSSPVTKSFNRGEC
heavy 2: QVQLVQSGAEVKKPGASVTVSCKASGYTFTDYEMHWIRQPPGEGLEWIGAIDGPTPDTAYSEKFKGRVTLTADKSTSTAYMELSSLTSEDTAVYYCTRFYSYTYWGQGTLVTVSSASTKGPSVFPLAPSSKSTSGGTAALGCLVKDYFPEPVTVSWNSGALTSGVHTFPAVLQSSGLYSLSSVVTVPSSSLGTQTYICNVNHKPSNTKVDKKVEPKSCDKTHTCPPCPAPELRGGPKVFLFPPKPKDTLMISRTPEVTCVVVDVSHEDPEVKFNWYVDGVEVHNAKTKPREEQYASTYRVVSVLTVLHQDWLNGKEYKCKVSNKALPAPIEKTISKAKGQPREPQVYTLPPSREEMTKNQVSLTCLVKGFYPSDIAVEWESNGQPENNYKTTPPYLDSDGSFFLYSKLTVDKSRWQQGNVFSCSVMHEALHNHYTQESLSLSP
light 2: B1 light 1 with S28P

increase rate due to the protease treatment (luciferase, uPA-treated / untreated), antibody 0.1 nM: 1 ratio
increase rate due to the protease treatment (luciferase, uPA-treated / untreated), antibody 1 nM: 1.7 ratio
B2: ANuPA20L/GLS//GCH065 (bispecific antibody, human IgG1, kappa, N297A)
heavy 1: QDGNEEMGGITQTPYKVSISGGGGSGGGGSGGGGSLSGRSDNHGGGSQVQLVESGGGLVQPGRSLRLSCAASGFTFSNAWMHWVRQAPGKGLEWVAQIKDKANGYNAYYAESVKGRFTISRDDSKNSIYLQMNSLKTEDTAVYYCRYVHYTTYAGFSYKFGVDAWGQGTTVTVSSASTKGPSVFPLAPSSKSTSGGTAALGCLVKDYFPEPVTVSWNSGALTSGVHTFPAVLQSSGLYSLSSVVTVPSSSLGTQTYICNVNHKPSNTKVDKKVEPKSCDKTHTCPPCPAPELRGGPKVFLFPPKPKDTLMISRTPEVTCVVVDVSHEDPEVKFNWYVDGVEVHNAKTKPREEQYASTYRVVSVLTVLHQDWLNGKEYKCKVSNKALPAPIEKTISKAKGQPREPQVYTLPPSRKEMTKNQVSLTCLVKGFYPSDIAVEWESNGQPENNYKTTPPYLDSDGSFFLYSKLTVDKSRWQQGNVFSCSVMHEALHNHYTQKSLSLSP
light 1: B1 light 1
heavy 2: B1 heavy 2
light 2: B1 light 1 with S28P

increase rate due to the protease treatment (luciferase, uPA-treated / untreated), antibody 0.1 nM: 1.2 ratio
increase rate due to the protease treatment (luciferase, uPA-treated / untreated), antibody 1 nM: 2.4 ratio
B3: hCE115HAuPA20L/GLS//GCH065 (bispecific antibody, human IgG1, kappa, N297A)
heavy 1: QDGNEEMGGITQTPYKVSISGGGGSGGGGSGGGGSLSGRSDNHGGGSQVQLVESGGGVVQPGRSLRLSCAASGFTFSNAWMHWVRQAPGKGLEWVAQIKAKSNNYATYYAESVKGRFTISRDDSKNSLYLQMNSLKTEDTAVYYCRYVHYGAYYGVDAWGQGTTVTVSSASTKGPSVFPLAPSSKSTSGGTAALGCLVKDYFPEPVTVSWNSGALTSGVHTFPAVLQSSGLYSLSSVVTVPSSSLGTQTYICNVNHKPSNTKVDKKVEPKSCDKTHTCPPCPAPELRGGPKVFLFPPKPKDTLMISRTPEVTCVVVDVSHEDPEVKFNWYVDGVEVHNAKTKPREEQYASTYRVVSVLTVLHQDWLNGKEYKCKVSNKALPAPIEKTISKAKGQPREPQVYTLPPSRKEMTKNQVSLTCLVKGFYPSDIAVEWESNGQPENNYKTTPPYLDSDGSFFLYSKLTVDKSRWQQGNVFSCSVMHEALHNHYTQKSLSLSP
light 1: B1 light 1
heavy 2: B1 heavy 2
light 2: B1 light 1 with S28P

increase rate due to the protease treatment (luciferase, uPA-treated / untreated), antibody 0.1 nM: 0.9 ratio
increase rate due to the protease treatment (luciferase, uPA-treated / untreated), antibody 1 nM: 0.6 ratio
B4: rCE115/rCE115GS//GCH065 (bispecific antibody, human IgG1, kappa, N297A)
heavy 1: B1 heavy 1
light 1: QDGNEGGGSGGGSGGGSDVVMTQTPVSMSVSLGGQVSISCRSSQSLVHNNGNTYVSWYIQKPSQSPQLLIYKVSNRFSGISDRFSGSGSGTDFTLKISRVEPDDLGVYYCGQGTQDPYTFGAGTKLELKRTVAAPSVFIFPPSDEQLKSGTASVVCLLNNFYPREAKVQWKVDNALQSGNSQESVTEQDSKDSTYSLSSTLTLSKADYEKHKVYACEVTHQGLSSPVTKSFNRGEC
heavy 2: B1 heavy 2
light 2: B1 light 1 with S28P

increase rate due to the protease treatment (luciferase, uPA-treated / untreated), antibody 0.1 nM: 6.4 ratio
increase rate due to the protease treatment (luciferase, uPA-treated / untreated), antibody 1 nM: 3.1 ratio
B5: rCE115/GLSuPA04//GCH065 (bispecific antibody, human IgG1, kappa, N297A)
heavy 1: B1 heavy 1
light 1: QDGNEEMGGGSGGGSGGGSLSGRSDNHGGGSDIVMTQSPLSLPVTPGEPASISCRSSQSLVHSNRNTYLHWYQQKPGQAPRLLIYKVSNRFSGVPDRFSGSGSGTDFTLKISRVEAEDVGVYYCGQGTQVPYTFGQGTKLEIKRTVAAPSVFIFPPSDEQLKSGTASVVCLLNNFYPREAKVQWKVDNALQSGNSQESVTEQDSKDSTYSLSSTLTLSKADYEKHKVYACEVTHQGLSSPVTKSFNRGEC
heavy 2: B1 heavy 2
light 2: B1 light 1 with S28P

increase rate due to the protease treatment (luciferase, uPA-treated / untreated), antibody 0.1 nM: 0.7 ratio
increase rate due to the protease treatment (luciferase, uPA-treated / untreated), antibody 1 nM: 0.9 ratio
B6: rCE115/rCE115//GCH065 (bispecific antibody, human IgG1, kappa, N297A)
heavy 1: B1 heavy 1
light 1: DVVMTQTPVSMSVSLGGQVSISCRSSQSLVHNNGNTYVSWYIQKPSQSPQLLIYKVSNRFSGISDRFSGSGSGTDFTLKISRVEPDDLGVYYCGQGTQDPYTFGAGTKLELKRTVAAPSVFIFPPSDEQLKSGTASVVCLLNNFYPREAKVQWKVDNALQSGNSQESVTEQDSKDSTYSLSSTLTLSKADYEKHKVYACEVTHQGLSSPVTKSFNRGEC
heavy 2: B1 heavy 2
light 2: B1 light 1 with S28P

increase rate due to the protease treatment (luciferase, uPA-treated / untreated), antibody 0.1 nM: 1 ratio
increase rate due to the protease treatment (luciferase, uPA-treated / untreated), antibody 1 nM: 0.7 ratio
B7: rCE115/GLSGS//GCH065 (bispecific antibody, human IgG1, kappa, N297A)
heavy 1: B1 heavy 1
light 1: QDGNEGGGSGGGSGGGSDIVMTQSPLSLPVTPGEPASISCRSSQSLVHSNRNTYLHWYQQKPGQAPRLLIYKVSNRFSGVPDRFSGSGSGTDFTLKISRVEAEDVGVYYCGQGTQVPYTFGQGTKLEIKRTVAAPSVFIFPPSDEQLKSGTASVVCLLNNFYPREAKVQWKVDNALQSGNSQESVTEQDSKDSTYSLSSTLTLSKADYEKHKVYACEVTHQGLSSPVTKSFNRGEC
heavy 2: B1 heavy 2
light 2: B1 light 1 with S28P

increase rate due to the protease treatment (luciferase, uPA-treated / untreated), antibody 0.1 nM: 2.8 ratio
increase rate due to the protease treatment (luciferase, uPA-treated / untreated), antibody 1 nM: 1.6 ratio
B8: rCE115/GLSuPA20//GCH065 (bispecific antibody, human IgG1, kappa, N297A)
heavy 1: B1 heavy 1
light 1: QDGNEEMGGITQTPYKVSISLSGRSDNHGGGSDIVMTQSPLSLPVTPGEPASISCRSSQSLVHSNRNTYLHWYQQKPGQAPRLLIYKVSNRFSGVPDRFSGSGSGTDFTLKISRVEAEDVGVYYCGQGTQVPYTFGQGTKLEIKRTVAAPSVFIFPPSDEQLKSGTASVVCLLNNFYPREAKVQWKVDNALQSGNSQESVTEQDSKDSTYSLSSTLTLSKADYEKHKVYACEVTHQGLSSPVTKSFNRGEC
heavy 2: B1 heavy 2
light 2: B1 light 1 with S28P

increase rate due to the protease treatment (luciferase, uPA-treated / untreated), antibody 0.1 nM: 2.7 ratio
increase rate due to the protease treatment (luciferase, uPA-treated / untreated), antibody 1 nM: 3.8 ratio
B9: rCE115/rCE115uPA04//GCH065 (bispecific antibody, human IgG1, kappa, N297A)
heavy 1: B1 heavy 1
light 1: QDGNEEMGGGSGGGSGGGSLSGRSDNHGGGSDVVMTQTPVSMSVSLGGQVSISCRSSQSLVHNNGNTYVSWYIQKPSQSPQLLIYKVSNRFSGISDRFSGSGSGTDFTLKISRVEPDDLGVYYCGQGTQDPYTFGAGTKLELKRTVAAPSVFIFPPSDEQLKSGTASVVCLLNNFYPREAKVQWKVDNALQSGNSQESVTEQDSKDSTYSLSSTLTLSKADYEKHKVYACEVTHQGLSSPVTKSFNRGEC
heavy 2: B1 heavy 2
light 2: B1 light 1 with S28P

increase rate due to the protease treatment (luciferase, uPA-treated / untreated), antibody 0.1 nM: 1 ratio
increase rate due to the protease treatment (luciferase, uPA-treated / untreated), antibody 1 nM: 1.5 ratio
B10: rCE115/GLSuPA27//GCH065 (bispecific antibody, human IgG1, kappa, N297A)
heavy 1: B1 heavy 1
light 1: QDGNEEMGGITQTPYKVSISGTTVILTLSGRSDNHDIVMTQSPLSLPVTPGEPASISCRSSQSLVHSNRNTYLHWYQQKPGQAPRLLIYKVSNRFSGVPDRFSGSGSGTDFTLKISRVEAEDVGVYYCGQGTQVPYTFGQGTKLEIKRTVAAPSVFIFPPSDEQLKSGTASVVCLLNNFYPREAKVQWKVDNALQSGNSQESVTEQDSKDSTYSLSSTLTLSKADYEKHKVYACEVTHQGLSSPVTKSFNRGEC
heavy 2: B1 heavy 2
light 2: B1 light 1 with S28P
